B1: P19 (19L2H2) (antibody, human IgG1, kappa, V domains shown)
VH: EVKLVESGGGLVQPGGSLRLSCAASGFTFSDYYMAWVRQAPGKGLEWVANINYDGSSTYYLDSLKSRFTISRDNAKNSLYLQMNSLRAEDTAVYYCARGGDYWDAMDYWGQGTTVTVSS
VL: DIQMTQSPSSLSASVGDRVTITCRASQDISKYLNWYQQKPGKAPKLLIYYTSSLHSGVPSRFSGSGSGTDYTLTISSLQPEDFATYYCQQGNRLPRTFGGGTKVEIKR
notes: Humanized anti-PSMA antibody from mouse mAb19-1 (hu19-1 VH2 + hu19-1 VL2), human IgG1 / kappa constant regions; also called antibody P19
B2: ADC-1 (P19-9-A, n = 5.55) (antibody, human IgG1, kappa, V domains shown)
VH: B1 VH
VL: B1 VL
modifications: drug-linker 9-A coupled via sulfhydryl groups on cysteine; mean n = 5.55 per antibody (positions not stated)
B3: ADC-2 (P19-9-A, n = 7.41) (antibody, human IgG1, kappa, V domains shown)
VH: B1 VH
VL: B1 VL
modifications: drug-linker 9-A coupled via sulfhydryl groups on cysteine; mean n = 7.41 per antibody (positions not stated)
B4: H-AB-P1 (AB-PG1-XG1-006) (antibody, V domains shown)
VH: QVQLVESGGGVVQPGRSLRLSCAASGFAFSRYGMHWVRQAPGKGLEWVAVIWYDGSNKYYADSVKGRFTISRDNSKNTQYLQMNSLRAEDTAVYYCARGGDFLYYYYYGMDVWGQGTTVTVSS
VL: DIQMTQSPSSLSASVGDRVTITCRASQGISNYLAWYQQKTGKVPKFLIYEASTLQSGVPSRFSGGGSGTDFTLTISSLQPEDVATYYCQNYNSAPFTFGPGTKVDIK

Columns and labels:
[1] = molecular target: T1, human PSMA (prostate specific membrane antigen) on tumor cells (human, UniProt Q04609 1-750); test: cell-based or functional assay
[2] = molecular target: T1, human PSMA (prostate specific membrane …); test: flow cytometry on 22RV1 cells, FITC anti-human IgG secondary
[3] = molecular target: T1, human PSMA (prostate specific membrane …); test: flow cytometry on LNCaP cells, FITC anti-human IgG secondary
[4] = molecular target: T1, human PSMA (prostate specific membrane …); test: flow cytometry on 22RV1 cells, FITC anti-human IgG secondary; remark: listed apart in the source
[5] = molecular target: T1, human PSMA (prostate specific membrane …); test: flow cytometry on LNCaP cells, FITC anti-human IgG secondary; remark: listed apart in the source
[6] = molecular target: T2, mouse PSMA-His (ACRO, PSA-M5245) (mouse, UniProt O35409 45-752); test: SPR (Biacore T200), antibody captured on Protein A chip, antigen flowed over
T2 construct: Commercial protein; not shown: His tag

[7] = molecular target: T3, human PSMA-His (ACRO, PSA-H52H3) (human, UniProt Q04609 44-750); test: SPR (Biacore T200), antibody captured on Protein A chip, antigen flowed over, 1:1 model
T3 construct: Commercial protein; not shown: His tag

[8] = molecular target: T4, monkey PSMA-His (ACRO, PSA-C5247) (monkey (cynomolgus), UniProt A0A2K5VNZ0 44-750); test: as above
T4 construct: Commercial protein; also called cynomolgus monkey PSMA; not shown: His tag

[9] = molecular target: T1, human PSMA (prostate specific membrane …); test: cell-based or functional assay; remark: listed apart in the source

T3 sequence (Q04609 44-750 limits assumed): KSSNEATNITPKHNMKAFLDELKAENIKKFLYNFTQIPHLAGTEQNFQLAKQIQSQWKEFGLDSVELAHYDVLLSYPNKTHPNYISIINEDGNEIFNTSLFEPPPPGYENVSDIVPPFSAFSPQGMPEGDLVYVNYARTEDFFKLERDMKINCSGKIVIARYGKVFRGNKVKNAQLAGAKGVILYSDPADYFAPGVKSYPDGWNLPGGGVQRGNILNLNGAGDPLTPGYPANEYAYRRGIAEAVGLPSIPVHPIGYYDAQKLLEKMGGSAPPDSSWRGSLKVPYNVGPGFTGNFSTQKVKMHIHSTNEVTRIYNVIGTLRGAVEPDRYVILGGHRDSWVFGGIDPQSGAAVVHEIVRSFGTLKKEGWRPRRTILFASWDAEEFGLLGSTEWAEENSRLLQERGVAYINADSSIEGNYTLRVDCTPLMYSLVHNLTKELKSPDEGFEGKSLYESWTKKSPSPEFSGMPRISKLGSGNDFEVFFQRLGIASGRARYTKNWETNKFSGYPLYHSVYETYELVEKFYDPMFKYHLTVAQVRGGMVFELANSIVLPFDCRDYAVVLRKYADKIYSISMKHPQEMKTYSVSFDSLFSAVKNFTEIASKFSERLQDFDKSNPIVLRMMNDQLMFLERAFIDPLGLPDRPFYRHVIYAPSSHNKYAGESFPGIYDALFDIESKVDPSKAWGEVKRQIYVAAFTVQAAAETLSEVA
T1 sequence (Q04609 whole entry): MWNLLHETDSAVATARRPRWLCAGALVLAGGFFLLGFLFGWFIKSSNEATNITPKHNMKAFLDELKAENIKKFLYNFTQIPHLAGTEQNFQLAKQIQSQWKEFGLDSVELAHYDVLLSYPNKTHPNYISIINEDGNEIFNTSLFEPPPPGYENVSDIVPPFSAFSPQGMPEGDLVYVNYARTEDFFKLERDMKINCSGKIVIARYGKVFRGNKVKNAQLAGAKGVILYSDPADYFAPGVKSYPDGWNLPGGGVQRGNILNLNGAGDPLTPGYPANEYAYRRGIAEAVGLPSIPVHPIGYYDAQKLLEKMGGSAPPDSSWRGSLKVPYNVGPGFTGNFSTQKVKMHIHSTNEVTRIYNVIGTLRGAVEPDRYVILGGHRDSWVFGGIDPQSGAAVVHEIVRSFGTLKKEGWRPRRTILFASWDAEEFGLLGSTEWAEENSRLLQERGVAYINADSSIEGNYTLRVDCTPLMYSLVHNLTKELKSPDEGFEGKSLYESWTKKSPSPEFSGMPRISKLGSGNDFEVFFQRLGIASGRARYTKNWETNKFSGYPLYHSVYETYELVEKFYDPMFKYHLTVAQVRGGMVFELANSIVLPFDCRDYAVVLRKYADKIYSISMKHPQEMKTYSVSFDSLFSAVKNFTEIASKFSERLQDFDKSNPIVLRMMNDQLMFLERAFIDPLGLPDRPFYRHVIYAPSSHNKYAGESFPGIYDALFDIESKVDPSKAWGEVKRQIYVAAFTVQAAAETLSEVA
T2 sequence (O35409 45-752): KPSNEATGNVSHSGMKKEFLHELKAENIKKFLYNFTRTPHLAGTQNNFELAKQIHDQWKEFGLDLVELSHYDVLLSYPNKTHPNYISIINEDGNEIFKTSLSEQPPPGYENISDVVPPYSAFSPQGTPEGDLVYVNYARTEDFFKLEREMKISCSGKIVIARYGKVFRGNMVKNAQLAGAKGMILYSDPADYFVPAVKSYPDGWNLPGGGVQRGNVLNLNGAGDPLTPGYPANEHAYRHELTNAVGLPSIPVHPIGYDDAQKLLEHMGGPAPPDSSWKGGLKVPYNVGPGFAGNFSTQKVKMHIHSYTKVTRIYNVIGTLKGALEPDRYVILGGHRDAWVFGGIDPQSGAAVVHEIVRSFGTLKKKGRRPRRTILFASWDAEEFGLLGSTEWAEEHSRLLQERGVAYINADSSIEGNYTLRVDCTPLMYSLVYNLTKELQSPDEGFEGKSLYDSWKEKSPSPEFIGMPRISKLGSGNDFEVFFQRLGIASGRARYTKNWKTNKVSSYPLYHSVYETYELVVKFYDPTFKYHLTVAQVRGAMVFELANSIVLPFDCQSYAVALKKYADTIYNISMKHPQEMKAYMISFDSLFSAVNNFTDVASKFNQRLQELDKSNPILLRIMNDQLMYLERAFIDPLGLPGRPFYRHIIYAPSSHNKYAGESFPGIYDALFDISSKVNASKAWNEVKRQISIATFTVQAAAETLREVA

Binder	DT3C endocytosis assay on LNCaP cells, IC50 [1] [nM]	EC50 [2] [nM]	EC50 [3] [nM]	EC50 [4] [nM]	EC50 [5] [nM]	binding result [6]	Kd [7] [nM]	koff [7] [s⁻¹]	kon [7] [M⁻¹ s⁻¹]	Kd [8] [nM]	killing of 22RV1 (+) cells, CellTiter-Glo, IC50 [9] [nM]	killing of LNCaP (+++) cells, CellTiter-Glo, IC50 [9] [nM]
B1	0.25	0.637	2.09	0.0719	0.305	no binding	1.3	7.92e-05	61100	5.08	–	–
B2	–	–	–	0.114	0.442	–	–	–	–	–	29.5	8.52
B3	–	–	–	0.0812	0.307	–	–	–	–	–	6.92	2.83
B4	2.71	–	–	–	–	–	–	–	–	–	–	–
